Experimental findings from the DeepSol protein solubility set are described below.

This series is described as follows: soluble on expression in E. coli; label from the status in PepcDB or PDB records.
With “MSAFTPASEVLLRHSDDFEQSRILFAGDLQDDLPARLDTAASRAHTQQFHHWQVLSRQMGDNARFSLVATADDVADCDTLIYYWPKNKPEAQFQLMNLLSLLPVGTDIFVVGENRSGVRSAEQMLADYAPLNKVDSARRCGLYFGRLEKQPVFDAEKFWGEYSVDGLTVKTLPGVFSRDGLDVGSQLLLSTLTPHTKGKVLDVGCGAGVLSVAFARHSPKIRLTLCDVSAPAVEASRATLAANGVEGEVFASNVFSEVKGRFDMIISNPPFHDGMQTSLDAAQTLIRGAVRHLNSGGELRIVANAFLPYPDVLDETFGFHEVIAQTGRFKVYRAIMTRQAKKG”, the “soluble on expression in E. coli” value was “soluble”.

On to “MSAITITEAAQAYLAELLEKQSTPGIGIRIFITQPGTQYAETCIAYCKPGEEKVEDTAIALKDFTAWIDAVSEPFLEDAVVDYATDRMGGQLTIKAPNAKVPMVNEDSPITERINYYLQTEINPGLASHGGQVSLVDVVEDNIAVLRFGGGCQGCGMVDMTLKDGVEKTLIERIPELKGVRDVTDHSNKENAYY”, for which the “soluble on expression in E. coli” value is “not soluble”.

Regarding “MSALFEPYTLKDVTLRNRIAIPPMSQYMAEDGMINDWHHVHLAGLARGGAGLLVVEATAVAPEGRITPGCAGIWSDAHAQAFVPVVQAIKAAGSVPGIQIAHAGRKASANRPWEGDDHIAADDTRGWETIAPSAIAFGAHLPKVPREMTLDDIARVKQDFVDAARRARDAGFEWIELHFAHGYLGQSFFSEHSNKRTDAYGGSFDNRSRFLLETLAAVREVWPENLPLTARFGVLEYDGRDEQTLEESIELARRFKAGGLDLLSVSVGFTIPDTNIPWGPAFMGPIAERVRREAKLPVTSAWGFGTPQLAEAALQANQLDLVSVGRAHLADPHWAYFAAKELGVEKASWTLPAPYAHWLERYR”, the “soluble on expression in E. coli” value was “soluble”.

In the case of “MSANFTDKNGRQSKGVLLLRTLAMPSDTNANGDIFGGWIMSQMDMGGAILAKEIAHGRVVTVAVESMNFIKPISVGDVVCCYGQCLKVGRSSIKIKVEVWVKKVASEPIGERYCVTDAVFTFVAVDNNGRSRTIPRENNQELEKALALISEQPLLEHHHHHH”, the “soluble on expression in E. coli” value was “not soluble”.

Turning to “MSANLVTPKWGYIGKMPAKGDFVKDGISPEFANRWHDWQQAVIAVSKEQLGDTWNDYFLTAPVWHFALDVSYMDDATYIGSMIPSVDACGRYFFFTVVRAVKGKAAQYWAQSGWTEDSQTLALSVLDDEFVFDVWHRSMQEKCELVSEVSICNEEMALLYQSPISTVFSFSTEAKQNTLLNHLIESQQRKPCFWWTEGSTHIESCMFVSTGLPSIGQFSAMLDGRWQMWSW”, the “soluble on expression in E. coli” value was “not soluble”.

“MSAPNPKAFPLADAALTQQILDVVQQAANLRQLKKGANEATKTLNRGISEFIIMAADCEPIEILLHLPLLCEDKNVPYVFVPSRVALGRACGVSRPVIAASITTNDASAIKTQIYAVKDKIETLLI”: the “soluble on expression in E. coli” value is on record as “soluble”.

“MSARVRPFLMFQGVQAEAAMNFYLSLFDDAEILQIQRYGAEGPGPEGSVLKALFRLGDQSVHCIDSHVRHAFDFTPAFSFFVDCESNAQIERLAEALSDGGKALMPLGDYGFSQRFAWLADRFGVSWQLNLA”: the “soluble on expression in E. coli” value is reported as “soluble”.

Take “MSASGLLVEKSGPLSLIQDFGRFGLAHIGITQGGPVDDYAYSWANHLLGNRVNCSAIEITLGNACFIALQDCHLAICGGDLNASVDGHPIANWSDFSIKKGQKLQFGMAKNGLRAYLAVKGGFNVPEHLGSSSTVLREALGGLEANGNALKAGDVLPFDAHSLPNHKPRIMTFRFKPDYNLPITLRVIEGYQCDDFSVEAKEKFYSGSFAISPDSNRMGYRLEGNTVKPPYDGILSEGIALGAIQIPHDGNPIVLLNDHQTIGGYPKLGCVARIDLPRLAQAKPGQKVRFVKGDRQGLQDVWCQWAQFFGY”: the “soluble on expression in E. coli” value is given as “not soluble”.

For the sequence “MSASLAILTIGVVPMSEVLPLLTEYIDEQHITHHSLLGKMSREDVMADYAVEPGDDPLLTLLNDNQIAHVSRQKVERDLQSVVEVLDNQGYDVIILMSTAAIKSMAARNSILLEPLRIIPPLVASIVDGHQVGVIVPVAELLAAQEKKWQVLQMPPVYSLANPVHGSEQQLIDAGQALLDQGADVIMLDCLGFHQRHRDILQQALDVPVLLSNVLIARLASELLV”, the “soluble on expression in E. coli” value is “not soluble”.

Turning to “MSCPVIELTQQLIRRPSLSPDDAGCQALLIERLQAIGFTVERMDFADTQNFWAWRGQGETLAFAGHTDVVPPGDADRWINPPFEPTIRDGMLFGRGAADMKGSLAAMVVAAERFVAQHPNHTGRLAFLITSDEEASAHNGTVKVVEALMARNERLDYCLVGEPSSIEVVGDVVKNGRRGSLTCNLTIHGVQGHVAYPHLADNPVHRAAPFLNELVAIEWDQGNEFFPATSMQIANIQAGTGSNNVIPGELFVQFNFRFSTELTDEMIKAQVLALLEKHQLRYTVDWWLSGQPFLTARGKLVDAVVNAVEHYNEIKPQLLTTGGTSDGRFIARMGAQVVELGPVNATIHKINECVNAADLQLLARMYQRIMEQLVA”, the “soluble on expression in E. coli” value is recorded as “soluble”.

Consider “MSDDDSSHDLPAANLQQLRLPDSASLRPAFSTHRPRILILYGSLRTVSYSRLLAEEARRLLEFFGAEVKVFDPSGLPLPDAAPVSHPKVQELRELSIWSEGQVWVSPERHGAMTGIMKAQIDWIPLSTGSIRPTQGKTLAVMQVSGGSQSFNAVNQMRILGRWMRMITIPNQSSVAKAFQEFDANGRMKPSSYYDRVVDVMEELVKFTLLTRDCSAYLTDRYSERKESAAELEHRVTLKSVHHHHHH”, for which the “soluble on expression in E. coli” value is “soluble”.

With “MSDDGSDTSFEEPHGDFDYTLLFEKFNKEVPKMEEVMKAAKKFGASHRHLINKFILEPSMSAKKMNLMFAKHLTTAIWKRHPDTVMQIQTNREEARQLSKLIVKTMNDDEGKGPKPFRPWRFVISTDEKSPTEFVTMTGCGRNSSVISEASDLTKVERALLLVILEEMISSDGTVQMDWVHSQIRHEPCKMPGPKCDIFMAKMMRQRYFLMTDENEVAEITPRILVELEPWLRAKFTGDLKTCELCRKIISRSVYTAECQKCHALCHFNCFKNATIISHQDNVECQKCNQNLSLNEVLKQIDTKKATGVPRSRDTVARSPSPDSDVPKAPSRTQRAKSKSKTPAPVDSDDDMTITPRPTRGKRNQRVPDSDSE”, the “soluble on expression in E. coli” value was “not soluble”.

“MSDKKVFILSGARTPIGAYRGSFANFGAVELGTVAAKAAIERSGVAPEKIEEVIGGCVLPAGLGQNVTRQISLSAGLPVTTQAVTVNKVCSSSMKALVTAAVEIKAGYYDTILVVGTENMSQVPFYVPRGEIPFGGIQMTDGISKDGLEDIKEKGPMGLCAEKTVKDYGITREEQDAYAIESYKKASNAWSSEKFSEEVVPVSVKTSRSEVVITEDEEYKKLIESKVSSLKPVFVRDGTGTITPANASSLNDGAVATVVVGENALPQGAHPLAELVAFAEAGRAPIDFTVAPVDAVRLLLKKSGLQVSDIALWELNEAFAVTVLAFIKELNIEPSVVNVKGGAVAIGHPLGMSGLRIVNSLAYSLAPGQLGVAAICNGGGEATAVLIKKL”: the “soluble on expression in E. coli” value is listed as “not soluble”.

On to “MSDKNQIAARASLIEQLMSKRNFEDLGNHLTELETIYVTKEHLQETDVVRAVYRVLKNCPSVALKKKAKCLLSKWKAVYKQTHSKARNSPKLFPVRGNKEENSGPSHDPSQNETLGICSSNSLSSQDVAKLSEMIVPENRAIQLKPKEEHFGDGDPESTGKRSSELLDPTTPMRTKCIELLYAALTSSSTDQPKADLWQNFAREIEEHVFTLYSKNIKKYKTCIRSKVANLKNPRNSHLQQNLLSGTTSPREFAEMTVMEMANKELKQLRASYTESCIQEHYLPQVIDGTQTNKIKCRRCEKYNCKVTVIDRGTLFLPSWVRNSNPDEQMMTYVICNECGEQWYHSKWVCW”, for which the “soluble on expression in E. coli” value is reported as “soluble”.

On to “MSDLADNAIDAARQENVARILEAAERLFRHYGYAKTNVADIARELDMSPANIYRFFASKTEIHQTLCLRMLGASYQQALEIAHLPLSASERLRRYALGQHKLTVETMLDEQKVHEMVVVAIERDWHVIEKHISRLDDLLAGIIREGIEAGEFADVDPAVAARCFGASLVTLCHPQIVAQCLAKENRATPDELVEFAIRALKK”, for which the “soluble on expression in E. coli” value is “soluble”.

As for “MSDQQQPPVYKIALGIEYDGSKYYGWQRQNEVRSVQEKLEKALSQVANEPITVFCAGRTDAGVHGTGQVVHFETTAQRKDAAWTLGVNANLPGDIAVRWVKAVPDDFHARFSATARRYRYIIYNHRLRPAVLSKGVTHFYEPLDAERMHRAAQCLLGENDFTSFRAVQCQSRTPWRNVMHINVTRHGPYVVVDIKANAFVHHMVRNIVGSLMEVGAHNQPESWIAELLAAKDRTLAAATAKAEGLYLVAVDYPDRYDLPKPPMGPLFLAD”, the “soluble on expression in E. coli” value is “soluble”.

“MSDSIQERYLVGYALAAKKQHSFIQPSLIEHSRQRGIDLVKLDPTKSLLEQGKLDCIIHKLYDVYWKENLHEFREKCPGVPVIDLPEAIERLHNRVSMLEVITQLRFPVSDSERFGVPEQVVVMDSSVLSGGGALGELKFPVIAKPLDADGSAKSHKMFLIYDQEGMKILKAPIVLQEFVNHGGVIFKVYVVGDHVKCVKRRSLPDISEEKIGTSKGSLPFSQISNLTAQEDKNIEYGEDRSLEKVEMPPLSFLTDLAKAMRESMGLNLFNFDVIRDAKDANRYLIIDINYFPGYAKMPSYEPVLTEFFWDMVTKKNHV”: the “soluble on expression in E. coli” value is given as “soluble”.

For “MSDSVSDAQAQSTPEGAQQKPILRVVKGNPDPTQVATLTALFASMADNAAQQSKQERERNLWGNVEERLQRPTTYNPTAFRNVSFF”, the “soluble on expression in E. coli” value was “not soluble”.

For the sequence “MSDVEKKSETQEAAPKKKPYNLREKKEKKAAYRSLIRAELADELYDKILNIVVVQKKYKDPNYSAKDLAKELKTNTRYLSAVVNSRFGMNYSCLLNEYRIKDALHLLVDKRYMDKNVEEISAMVGFANRQSFYAAFYKNVGETPNGYRKRNQEKK”, the “soluble on expression in E. coli” value is recorded as “not soluble”.

“MSDVKSVIESGRAVLGIEFGSTRIKAVLIGEDHAPIATGAHDWENMLVDGIWTYSLDMIWEGISDCYSKMAQDAKEKYGVTIKKLAAIGISGMMHGYLPFDEEDNLLVPFRTWRNTITGEAAAELTEVLGFNIPQRWSIAHLYQAILNKEEHVSKISYFTTLAGYIHWQLTGEKVMGVGEASGMFPIDSKTRDYDAAMLDKFAALDKVKEYPWDIRDILPKVLTAGEKAGTLTEEGAKRLDVSGNLESGILLAPPEGDAGTGMVATNSVAVRTGNVSAGTSVFAMVVLEKALKAVHEELDMVTTPSGDAVAMVHCNNCTSDLNAWVGLFKEFSELFGMDIDMNDIYGKLYNNALTADKDCGGLVAFNLFSGEPVIGLNEGRPMFARKPDARMNLANFMRTHLYASLATLKIGCDILFKEEKVKVDTLYGHGGLFKTKGVGQSILAAAMDAPVAVMETAGEGGPWGMAVLAAYMVNKADGEPLEKYLSDRVFNGEKGIVMQPDPDDVKGFDEYINTYKAAIEAERAMVKALPLLEHHHHHH”: the “soluble on expression in E. coli” value is reported as “soluble”.

In the case of “MSEAVKLDVGGTIFKTSKSTLTKFDGFFRTMLGSGIGLNVDESGCIFIDRSPKHFDLILNFMRDGCLALPKNERDLTELMAEAQYYLLDGLIDRLASSNWSVESDEKTINVAKRLPILENNSQFLQVLCNQEKPILLIVVMASRDHFFPNMSIPDGFNAYKFVEKYSHQFHIYFMSTFVAQFLTIRVKRNNKIVYLKRAAYVSSGQQE”, the “soluble on expression in E. coli” value is on record as “not soluble”.

With “MSEDNFDDEFDGSLPSGPRHPMARRFRGYLPVVVDVETGGFNSATDALLEIAATTVGMDEKGFLFPEHTYFFRIEPFEGANIEPAALEFTGIKLDHPLRMAVQEEAALTEIFRGIRKALKANGCKRAILVGHNSSFDLGFLNAAVARTGIKRNPFHPFSSFDTATLAGLAYGQTVLAKACQAAGMEFDNREAHSARYDTEKTAELFCGIVNRWKEMGGWMDDDD”, the “soluble on expression in E. coli” value was “soluble”.

Consider “MSELIKHSSNFLAAISPDNDCSITATNDFEAMMSWLNGYKKKPINTSRNYAREVKRYLIWLSCQGLTLAQVKIEDVYEYFNLLERPTTEWIIPDKKTDKIYPTQLIKYGGLSNRSINYTHTVLGLFYSFLQDAGYLTKNPINLVKKALEHHHHHH”, for which the “soluble on expression in E. coli” value is on record as “not soluble”.
